One molecule from paper PMC9463131, “SLITRK1-mediated noradrenergic projection suppression in the neonatal prefrontal cortex” (Communications Biology, 2022) can be followed below.

What is called Kd is the concentration at which binding is half-saturated.

Assay [1] deals with T1, human PTPRD ECD-His6 (ACROBiosystems) (human, UniProt P23468 21-1265).
T1 construct: human receptor-type protein tyrosine phosphatase delta (PTPRD), extracellular domain; No catalogue number printed; also called PTPRδ; source: bought: ACROBiosystems
T1 sequence (looked up): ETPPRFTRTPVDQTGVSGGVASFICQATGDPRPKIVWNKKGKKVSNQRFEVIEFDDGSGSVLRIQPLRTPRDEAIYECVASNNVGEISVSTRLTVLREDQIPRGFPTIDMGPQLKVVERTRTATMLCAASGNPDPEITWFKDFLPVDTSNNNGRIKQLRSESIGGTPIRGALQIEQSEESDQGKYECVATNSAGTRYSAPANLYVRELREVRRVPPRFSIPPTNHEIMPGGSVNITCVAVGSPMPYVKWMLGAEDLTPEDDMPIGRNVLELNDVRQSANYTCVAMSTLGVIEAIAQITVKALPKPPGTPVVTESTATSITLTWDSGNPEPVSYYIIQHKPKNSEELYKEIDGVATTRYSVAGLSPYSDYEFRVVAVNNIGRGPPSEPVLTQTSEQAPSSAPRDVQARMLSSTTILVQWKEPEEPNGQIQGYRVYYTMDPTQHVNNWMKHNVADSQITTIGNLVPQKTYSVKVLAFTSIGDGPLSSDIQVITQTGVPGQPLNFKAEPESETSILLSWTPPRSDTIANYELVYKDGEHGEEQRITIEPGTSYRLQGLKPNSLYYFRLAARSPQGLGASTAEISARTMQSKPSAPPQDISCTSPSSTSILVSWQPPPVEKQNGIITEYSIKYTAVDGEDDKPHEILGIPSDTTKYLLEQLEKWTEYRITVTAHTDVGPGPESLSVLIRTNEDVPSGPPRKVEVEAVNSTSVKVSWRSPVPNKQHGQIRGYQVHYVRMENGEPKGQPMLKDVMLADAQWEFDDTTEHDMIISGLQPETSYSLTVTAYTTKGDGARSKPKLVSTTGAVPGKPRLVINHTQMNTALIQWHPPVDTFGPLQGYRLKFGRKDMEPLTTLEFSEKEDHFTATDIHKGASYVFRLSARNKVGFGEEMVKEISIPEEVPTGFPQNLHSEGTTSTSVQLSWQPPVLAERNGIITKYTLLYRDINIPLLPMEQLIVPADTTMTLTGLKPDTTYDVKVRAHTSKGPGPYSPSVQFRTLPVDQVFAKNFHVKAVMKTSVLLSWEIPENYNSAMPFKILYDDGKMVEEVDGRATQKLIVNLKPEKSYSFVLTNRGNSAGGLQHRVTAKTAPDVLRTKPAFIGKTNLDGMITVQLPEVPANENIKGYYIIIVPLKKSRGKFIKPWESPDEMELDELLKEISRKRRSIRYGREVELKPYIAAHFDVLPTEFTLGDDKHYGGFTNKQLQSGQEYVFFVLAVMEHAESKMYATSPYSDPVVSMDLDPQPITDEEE
As to the kind of experiment: quartz crystal microbalance; AffinixQ, 27 MHz; about 200 femtomoles SLITRK1 ECD-Fc (WT, S330A or A444S) immobilised through anti-human IgG Fc on the gold resonator; ECD-His6 proteins added at several concentrations; 50 mM Tris-HCl pH 7.6, 15 mM NaCl, 140 mM KCl, 0.5 mM MgCl2, 2 mM CaCl2; 25 ± 1 °C; KD = koff/kon. Conditions: both partners purified.

In assay [2] the target is T2, L1CAM ECD-His6 (777-NC-100, R&D Systems) (UniProt P32004 20-1120).
T2 construct: L1CAM extracellular domain; source: bought: R&D Systems (777-NC-100)
Described as above. Conditions: both partners purified.

T2 sequence (P32004 20-1120): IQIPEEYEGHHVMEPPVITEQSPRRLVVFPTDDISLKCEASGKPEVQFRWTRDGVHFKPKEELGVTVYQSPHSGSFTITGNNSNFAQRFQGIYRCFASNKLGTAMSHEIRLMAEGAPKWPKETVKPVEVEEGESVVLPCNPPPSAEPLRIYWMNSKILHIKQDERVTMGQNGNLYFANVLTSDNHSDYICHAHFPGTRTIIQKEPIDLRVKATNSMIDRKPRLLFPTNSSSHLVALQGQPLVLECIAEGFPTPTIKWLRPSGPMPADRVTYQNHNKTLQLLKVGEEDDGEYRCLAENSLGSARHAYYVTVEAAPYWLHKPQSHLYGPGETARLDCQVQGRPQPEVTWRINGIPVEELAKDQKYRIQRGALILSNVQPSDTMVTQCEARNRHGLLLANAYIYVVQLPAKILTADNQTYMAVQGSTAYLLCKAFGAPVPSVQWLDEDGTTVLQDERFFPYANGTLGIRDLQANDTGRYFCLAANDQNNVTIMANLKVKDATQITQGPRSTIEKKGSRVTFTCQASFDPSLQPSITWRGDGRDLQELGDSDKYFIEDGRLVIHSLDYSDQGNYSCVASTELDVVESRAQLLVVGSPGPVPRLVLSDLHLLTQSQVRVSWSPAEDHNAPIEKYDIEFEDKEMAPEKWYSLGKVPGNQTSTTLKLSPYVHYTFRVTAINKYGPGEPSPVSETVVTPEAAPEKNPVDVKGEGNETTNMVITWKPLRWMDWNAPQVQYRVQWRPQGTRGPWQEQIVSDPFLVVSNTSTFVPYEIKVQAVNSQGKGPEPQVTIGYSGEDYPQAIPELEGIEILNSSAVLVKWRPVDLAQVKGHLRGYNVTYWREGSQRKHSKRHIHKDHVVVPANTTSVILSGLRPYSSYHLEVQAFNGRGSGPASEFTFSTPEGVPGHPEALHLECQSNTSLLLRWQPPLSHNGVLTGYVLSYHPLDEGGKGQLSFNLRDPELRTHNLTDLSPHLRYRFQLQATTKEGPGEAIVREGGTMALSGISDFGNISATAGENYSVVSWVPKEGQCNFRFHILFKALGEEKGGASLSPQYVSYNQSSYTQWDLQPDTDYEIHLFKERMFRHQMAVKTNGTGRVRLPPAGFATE

B1: SLITRK1 ECD-immunoglobulin Fc domain-fusion protein (SLITRK1-WT-Fc) (Fc fusion, human, UniProt Q96PX8 18-616, looked up)
chain: NVTGDVCKEKICSCNEIEGDLHVDCEKKGFTSLQRFTAPTSQFYHLFLHGNSLTRLFPNEFANFYNAVSLHMENNGLHEIVPGAFLGLQLVKRLHINNNKIKSFRKQTFLGLDDLEYLQADFNLLRDIDPGAFQDLNKLEVLILNDNLISTLPANVFQYVPITHLDLRGNRLKTLPYEEVLEQIPGIAEILLEDNPWDCTCDLLSLKEWLENIPKNALIGRVVCEAPTRLQGKDLNETTEQDLCPLKNRVDSSLPAPPAQEETFAPGPLPTPFKTNGQEDHATPGSAPNGGTKIPGNWQIKIRPTAAIATGSSRNKPLANSLPCPGGCSCDHIPGSGLKMNCNNRNVSSLADLKPKLSNVQELFLRDNKIHSIRKSHFVDYKNLILLDLGNNNIATVENNTFKNLLDLRWLYMDSNYLDTLSREKFAGLQNLEYLNVEYNAIQLILPGTFNAMPKLRILILNNNLLRSLPVDVFAGVSLSKLSLHNNYFMYLPVAGVLDQLTSIIQIDLHGNPWECSCTIVPFKQWAERLGSEVLMSDLKCETPVNFFRKDFMLLSNDEICPQLYARISPTLTSHSKNSTGLAETGTHSNSYLDTSRVS
notes: signal peptide in the construct; human SLITRK1 extracellular domain, amino acid number 1-616 in NP_443142; also called SLITRK1 ECD-Fc; SLITRK1 ECD-Fc fusion protein
With B1, the dissociation constant Kd came to 152 nM in assay [1] and 5.47 nM in assay [2].
